Reference: patent US11479601B2, “Antibodies specific to Sonic Hedgehog and method of use thereof” (The Regents of the University of California, priority 2016, dated 2022)

Key:
[1] = test system: GLI; assay: Ex vivo GLI expression in excised A549 xenograft tumors; design: species or system mice; details: tumors after 8 mg/kg treatment, versus IgG controls
Method: The in vivo effect of the C-terminal Shh antibodies were tested using the A549 cell subcutaneous xenograft tumor model in mice, as described in Example 1. After xenograft formation, animals were intra-tumor injected with a C terminal Shh antibody (2G4 or 2D9; each at 158 μg), or a control solution, 3 times a week for about 3 weeks (at 2-3 day intervals). Tumor volume was determined, as described in Example 1, every 2 days. Weight and size of the excised tumor were determined after the antibody treatment. […]
Total protein from whole-cell lysates was prepared with M-PER buffer (ThermoFisher Scientific) and from frozen tissues with T-PER (ThermoFisher Scientific) supplemented with protease and phosphatase inhibitors (Roche). Subsequently protein concentrations were determined via a Bradford assay. Equal quantities of proteins were combined with 5× protein loading buffer and separated by SDS-PAGE followed by PVDF membrane transfer. […]
Antibody-treated tumors were harvested to extract total RNA using Trizol (Invitrogen) and cDNA was synthesized using reverse transcriptase from iScript's cDNA Synthesis Kit (Bio-Rad). Real-time quantitative reverse transcript-polymerase chain reaction (qRT-PCR) was performed with TaqMan® Universal PCR Master Mix (Life Technologies) using gene specific PCR primers for human […] (Life Technologies). […]

[2] = test system: Shh 247-264 AA and Shh 448-462 AA peptides; assay: Biolayer interferometry (Octet RED 384) with Shh peptide-mimic ligands; format: binding, human; details: 37-3000 nM peptides; versus IgG control antibody
Method: Antibody immobilization was checked via Octet® Software (ForteBio) prior to introduction of increasing concentrations (37, 111, 333, 1000, 3000 nM) of Sonic Hedgehog peptide-mimic ligands (Shh 247-264 AA and Shh 448-462 AA). Graphical output from the Octet® Software of representative data from two independent experiments is presented.

[3] = test system: other lung and pancreatic cancer cell lines; assay: CellTiter-Glo cell viability assay, other cancer cell lines; format: cell-based; details: 96 hours
Method: Logarithmically growing cells were plated in antibiotic-free medium supplemented with 2% fetal bovine serum at a density of 5,000 cells per well in clear-bottom 96-well plates. The next day cells were treated (triplicates) with increasing doses of in-house therapeutic antibodies (reconstituted in PBS) or PBS controls for 96 hours and subsequently assessed for cell viability by measuring ATP content with CellTiter-Glo Luminescent Cell Viability Assay (Promega). Signal intensity was measured on a Glomax™ 96 Microplate Luminometer (Promega) and percent cell survival was calculated based on the reading of PBS control cells set as 100%.

[4] = molecular target: T1, Shh in A549 cells (Homo sapiens, UniProt Q15465); assay: Flow cytometry of purified antibodies on A549 cells (vector control or pCMV-Shh); format: binding
T1 construct: 1) 293T (endogenous Shh), 2) 293T (bearing exogenously transfected Shh) and 3) A549 (Shh-expressing); endogenous in cells; host or cells: 293T and A549 (endogenous); also 293T and A549 transiently transfected with pCMV-Shh (Origene)
Method: A549, 293T or 293T (+pCMV Shh) cells were labeled with Sonic Hedgehog (Shh) antibody (Abcam 53281, 1:100) or therapeutic test antibodies (1:100) for 1 hour at RT post serum blocking. Following two PBS washes, a FITC-conjugated secondary antibody (Abcam 97029, 1:100) or an Alexa-Fluor 647 (Invitrogen, 1:1000) was used to label cells. Samples were screened by flow cytometry using an Accuri™ C6 machine (BD Biosciences). For fluorescence activated cell sorting, samples were sorted using an S3e™ Cell Sorter (Bio-Rad) and the Shh+ population was collected. For all experiments, cells processed without primary antibody served as a negative control. Experiments were performed in duplicates or triplicates.
For the purpose of selecting the best C-term Shh antibodies from over 50 hybridoma clones, two sets of screening assays were designed. First, the same Shh C-term peptides (AA 247-264 and 448-462, KLH-free version) used to mount an immune response in mice was employed in an ELISA-based assay with supernatants from antibody-producing hybridoma clonal cells. […] To confirm specific recognition, A549 (+vector control) cells and A549 cells transfected with exogenous Shh were labeled with 2G4 and 2D9 and assessed via flow cytometry. […] Finally, the Kd values of both antibodies with recombinant full-length Shh were calculated and nanomolar binding affinities were observed (FIG. 48C).

B1: 2G4: purified mouse monoclonal C-terminal Shh antibody from hybridoma sub-clone 2G4 of clone 1C11, IgG1 kappa (antibody, V domains shown)
VH: EVKLVESGGGLVKPGGSLKLSCAASGFTFSSYTMSWVRQTPAKRLEWVATISSGGGNTYYPDSVKGRFTISRDNARNTLYLQMSSLRSEDTAMYYCARDYRSLFAYWGQGTLVTVSA
VL: QIVLTQSPAIMSASPGEKVTITCSASSSVSYMHWFQQKPGTSPKLWIYSTSNLASGVPARFSGSGSGTSYSLTISRMEAEDAATYYCQQRSSYPFTFGSGTKLEIK
[1]
  GLI transcripts (qRT-PCR) and GLI polypeptide expression (Western blot) in tumors: significant reduction in GLI transcripts
[2]
  binding response to Shh peptide-mimic ligands (BLI): increases in binding response
[3]
  growth of other lung and pancreatic cancer cell lines: inhibited the growth
[4]; A549 (+vector control)
  endogenous Shh recognized (flow cytometry): 0.5%
[4]; A549 cells transfected with exogenous Shh
  exogenous Shh recognized (flow cytometry): 6%
